The values that follow come from patent publication US20140298544A1, “Engineered PEP carboxylase variants for improved plant productivity” (PIONEER HI BRED INTERNATIONAL INC, priority 2011, published 2014).

Where two headings read alike, the source gives them in different places.

The data set relates to maize C4 PEPC. The data set can be described thus: Kinetic and regulatory properties of PEPC variants (expressed in E. coli). Format: biochemical. The following applies: for PEP, no activators kcat/S0.5 / PEP, no activators kcat/S0.5 % wt / PEP, with activators kcat/S0.5 / kcat/S0.5 Fold incr. / PEP, with activators kcat/S0.5 % wt: PEP substrate; for PEP, no activators kcat/S0.5 % wt / PEP, with activators kcat/S0.5 % wt / Glc-6-P A0.5 % wt / Glycine A0.5 % wt / HCO3 kcat/S0.5 % wt / Malate Ki % wt: relative to wild type; for kcat/S0.5 Fold incr.: with activators vs no activators; for HCO3 S0.5 / HCO3 kcat/S0.5 / HCO3 kcat/S0.5 % wt: bicarbonate substrate; for Ki / Malate Ki % wt: inhibitor malate. An excerpt:
Libraries of modified PEPC polynucleotides were generated using recursive sequence recombination methods (Stemmer, Proc. Natl. Acad. Sci USA 91:10747-10751; Ness, et. al., Nature Biotechnology 20:1251-1255), also known as gene shuffling methods. These libraries incorporated diversity from related PEPC enzymes and also incorporated other designed and random changes. The starting polynucleotide sequence in which the diversity was incorporated was the maize C4 PEPC as shown in SEQ ID NO: 25. Each PEPC variant was expressed in E. coli as a thioredoxin fusion using the pET 32 expression vector (Novagen) with the E. coli expression strain Rosetta gami 2 BL21 DE3 pLYS S. Cultures expressing the variants were grown in 96-well culture blocks, lysed, and then PEPC activity and PEPC protein abundance were determined. The variants with high specific activity were subjected to further rounds of shuffling, for a total of 3 rounds. Examples of nucleotide and amino acid sequences of PEPC variants obtained with this method are SEQ ID NO: 4 to 24.
Detailed kinetic studies of PEPC variants were done in accordance with methods known in the art. See, for example, Tovar-Mendez et al. (2000) Plant Physiol. 123: 149-160; Tover-Mendez et al. (1998) Biochem. J. 332: 633-642.
PEPC variants had several improved properties in comparison with wild type PEPC, including greater affinity (lower S0.5 values) with respect to the bicarbonate substrate, greater Kcat/S0.5 values with the bicarbonate or PEP substrates, greater activation (lower A0.5 values) with […] or glycine as activators and greater Ki values with malate as inhibitor.

[1] abbreviates: activator Glc-6-P, read-out: Glc-6-P A0.5.
Where [2] appears, read: activator glycine, read-out: Glycine A0.5.

B1: 3D5-D12: maize C4 PEPC variant, 7 amino acid substitutions, SEQ ID NO: 24 (protein)
chain: MASTKAPGPGEKHHSIDAQLRQLVPGKVSEDDKLIEYDALLVDRFLNILQDLHGPSLREFVQECYEVSADYEGKGDTTKLGELGARLTGLAPADAILVASSILHMLNLANLAEEAQIAHRRRNSKLKKGGFADEGSATTESDIEETLKRLVSEVGKSPEEVFEALKNQTVDLVFTAHPTQSARRSLLQKNAGIRNCLTQLNAKDITDDDKQELDEALQREIQAAFRTDEIRRAQPTPQDEMRYGMSYIHETVWKGVPKFLRRVDTALKNIGINERLPYNVSLIRFSSWMGGDRDGNPRVTPEVTRDVCLLARMMAANLYIDQIEELMFELSMWRCNDELRVRAEELHASAGSKVTKYYIEFWKQIPPNEPYRVILGHVRDKLYNTRERARHLLASGVSEISAESSFTSIEEFLEPLELCYKSLCDCGDKAIADGSLLDLLRQVFTFGLSLVKLDIRQESERHTDVIDAITTHLGIGSYREWSEDKRQEWLLSELKGKRPLLPPDLPQTDEIADVIGAFHVLAELPPDSFGPYIISMATAPSDVLAVELLQRECGVRQPLPVVPLFERLADLQSAPASVERLFSVDWYMDRIKGKQQVMVGYSDSGKDAGRLSAAWQLYRAQEEMAQVAKRYGVKLTLFHGRGGTVGRGGGPTHLAILSQPPDTINGSIRVTVQGEVIEFCFGEEHLCFQTLQRFTAATLEHGMHPPVSPKPEWRKLMDEMAVVATEEYRSVVVKEPRFVEYFRSATPETEYGRMNIGSRPAKRRPGGGITTLRAIPWIFSWTQTRFHLPVWLGVGAAFKFAIDKDVKNFQVLKEMYNEWPFFRVTLDLLEMVFAKGDPGIAGLYDELLVAEELKPFGKQLRDKYVETQQLLLQIAGHKDILEGDPFLKQGLVLRNPYITTLNVFQAYTLKRIRDPNFKVTPQPPLSKEFADENKPAGLVKLNPASEYPPGLEDTLILTMKGIAAGMQNTG
modifications: shuffled variant
As for B1, the “PEP, no activators kcat/S0.5” value is 151000 M⁻¹ s⁻¹; the “PEP, no activators kcat/S0.5 % wt” value was found to be 442 % wt; the “PEP, with activators kcat/S0.5” value came out at 5.551e+06 M⁻¹ s⁻¹; the “kcat/S0.5 Fold incr.” value was found to be 36.9 Fold incr. The “PEP, with activators kcat/S0.5 % wt” value turned out to be 227 % wt; the “HCO3 S0.5” value worked out at 0.0277 mM; the “HCO3 kcat/S0.5” value turned out to be 3.454e+06 M⁻¹ s⁻¹; the “HCO3 kcat/S0.5 % wt” value is 163 % wt. Also, the inhibition constant Ki is 4000 µM and the “Malate Ki % wt” value amounted to 1000 % wt. For the setting “activator Glc-6-P”, the “Glc-6-P Vmax Fold incr” value was 4.3 Fold incr and the “Glc-6-P A0.5 % wt” value was 28 % wt. Moreover, under setting [1], the EC50 came out at 1880 µM. For the setting “activator glycine”, the “Glycine Vmax Fold incr” value is on record as 4.1 Fold incr and the “Glycine A0.5 % wt” value worked out at 9 % wt. The EC50 under setting [2] worked out at 320 µM.

B2: 3C9-C9: maize C4 PEPC variant, 8 amino acid substitutions, SEQ ID NO: 22 (protein)
chain: MASTKAPGPGEKHHSIDAQLRQLVPGKVSEDDKLIEYDALLVDRFLNILQDLHGPSLREFVQECYEVSADYEGKGDTTKLGELGAKLTGLAPADAILVASSILHMLNLANLAEEVQIARRRRNSKLKKGGFADEGSATTESDIEETLKRLVSEVGKSPEEVFEALKNQTVDLVFTAHPTQSARRSLLQKNAGIRNCLTQLNAKDITDDDKQELDEALQREIQAAFRTDEIRRAQPTPQDEMRYGMSYIHETVWKGVPKFLRRVDTALKNIGINERLPYNVSLIRFSSWMGGDRDGNPRVTPEVTRDVCLLARMMAANLYINQIEELMFELSMWRCNDELRVRAEELHSSSGSKVTKYYIEFWKQIPPNEPYRVILGHVRDKLYNTRERARHLLASGVSEISAEASFTSIEEFLEPLELCYKSLCDCGDKAIADGSLLDLLRQVFTFGLSLVKLDIRQESERHTDVIDAITTHLGIGSYREWSEDKRQEWLLSELKGKRPLLPPDLPQTDEIADVIGAFHVLAELPPDSFGPYIISMATAPSDVLAVELLQRECGIKQPLPVVPLFERLADLQSAPASVERLFSVDWYMDRIKGKQQVMVGYSDSGKDAGRLSAAWQLYKAQEEMAQVAKRYGVKLTLFHGRGGTVGRGGGPTHLAILSQPPDTINGSIRVTVQGEVIEFCFGEEHLCFQTLQRFTAATLEHGMHPPVSPKPEWRKLMDEMAVVATEEYRSVVVKEPRFVEYFRSATPETEYGRMNIGSRPAKRRPGGGITTLRAIPWIFSWTQTRFHLPVWLGVGAAFKFAIDKDVRNFQVLKEMYNEWPFFRVTLDLLEMVFAKGDPGIAGLYDELLVAEELKPFGKQLRDKYVETQQLLLQIAGHKDILEGDPFLKQGLVLRNPYITTLNVFQAYTLKRIRDPNFKVTPQPPLSKEFADENKPAGLVKLNPASEYPPGLEDTLILTMKGIAAGMQNTG
modifications: shuffled variant
Consider B2, for which the “PEP, no activators kcat/S0.5” value was determined as 79600 M⁻¹ s⁻¹; the “PEP, no activators kcat/S0.5 % wt” value is recorded as 234 % wt; the “PEP, with activators kcat/S0.5” value was 3.831e+06 M⁻¹ s⁻¹; the “kcat/S0.5 Fold incr.” value came to 48.1 Fold incr. Further, the “PEP, with activators kcat/S0.5 % wt” value turned out to be 157 % wt; the “HCO3 S0.5” value is 0.021 mM; the “HCO3 kcat/S0.5” value is 3.606e+06 M⁻¹ s⁻¹; the “HCO3 kcat/S0.5 % wt” value is 170 % wt. Moreover, the inhibition constant Ki came to 2000 µM and the “Malate Ki % wt” value was 500 % wt. Moreover, for the setting “activator Glc-6-P”, the “Glc-6-P Vmax Fold incr” value came to 11.4 Fold incr and the “Glc-6-P A0.5 % wt” value came out at 57 % wt. Besides, under setting [1], the EC50 is 3850 µM. In addition, where the note is “activator glycine”, the “Glycine Vmax Fold incr” value amounted to 11.5 Fold incr and the “Glycine A0.5 % wt” value came out at 21 % wt. In addition, the EC50 under setting [2] is 760 µM.

B3: WT: wild-type maize C4 PEPC enzyme, SEQ ID NO: 26 (protein)
chain: MASTKAPGPGEKHHSIDAQLRQLVPGKVSEDDKLIEYDALLVDRFLNILQDLHGPSLREFVQECYEVSADYEGKGDTTKLGELGAKLTGLAPADAILVASSILHMLNLANLAEEVQIAHRRRNSKLKKGGFADEGSATTESDIEETLKRLVSEVGKSPEEVFEALKNQTVDLVFTAHPTQSARRSLLQKNARIRNCLTQLNAKDITDDDKQELDEALQREIQAAFRTDEIRRAQPTPQDEMRYGMSYIHETVWKGVPKFLRRVDTALKNIGINERLPYNVSLIRFSSWMGGDRDGNPRVTPEVTRDVCLLARMMAANLYIDQIEELMFELSMWRCNDELRVRAEELHSSSGSKVTKYYIEFWKQIPPNEPYRVILGHVRDKLYNTRERARHLLASGVSEISAESSFTSIEEFLEPLELCYKSLCDCGDKAIADGSLLDLLRQVFTFGLSLVKLDIRQESERHTDVIDAITTHLGIGSYREWSEDKRQEWLLSELRGKRPLLPPDLPQTDEIADVIGAFHVLAELPPDSFGPYIISMATAPSDVLAVELLQRECGVRQPLPVVPLFERLADLQSAPASVERLFSVDWYMDRIKGKQQVMVGYSDSGKDAGRLSAAWQLYRAQEEMAQVAKRYGVKLTLFHGRGGTVGRGGGPTHLAILSQPPDTINGSIRVTVQGEVIEFCFGEEHLCFQTLQRFTAATLEHGMHPPVSPKPEWRKLMDEMAVVATEEYRSVVVKEPRFVEYFRSATPETEYGRMNIGSRPAKRRPGGGITTLRAIPWIFSWTQTRFHLPVWLGVGAAFKFAIDKDVRNFQVLKEMYNEWPFFRVTLDLLEMVFAKGDPGIAGLYDELLVAEELKPFGKQLRDKYVETQQLLLQIAGHKDILEGDPFLKQGLVLRNPYITTLNVFQAYTLKRIRDPNFKVTPQPPLSKEFADENKPAGLVKLNPASEYPPGLEDTLILTMKGIAAGMQNTG
modifications: Zea mays
Regarding B3, the “PEP, no activators kcat/S0.5” value stood at 34100 M⁻¹ s⁻¹; the “PEP, no activators kcat/S0.5 % wt” value is on record as 100 % wt; the “PEP, with activators kcat/S0.5” value was found to be 2.443e+06 M⁻¹ s⁻¹; the “kcat/S0.5 Fold incr.” value came to 71.6 Fold incr. In addition, the “PEP, with activators kcat/S0.5 % wt” value worked out at 100 % wt; the “HCO3 S0.5” value was 0.0282 mM; the “HCO3 kcat/S0.5” value was 2.122e+06 M⁻¹ s⁻¹; the “HCO3 kcat/S0.5 % wt” value was found to be 100 % wt. The Ki stood at 400 µM and the “Malate Ki % wt” value is on record as 100 % wt. For the same molecule, for the setting “activator Glc-6-P”, the “Glc-6-P Vmax Fold incr” value is 23.1 Fold incr and the “Glc-6-P A0.5 % wt” value is given as 100 % wt. Further, the EC50 under setting [1] amounted to 6800 µM. In addition, where the note is “activator glycine”, the “Glycine Vmax Fold incr” value came to 15.9 Fold incr and the “Glycine A0.5 % wt” value worked out at 100 % wt. Also, the EC50 under setting [2] was determined as 3620 µM.

As a reminder, the Ki is a dissociation constant, usually derived from enzyme kinetics or from competition with a known ligand.
